Experiment: yeast display, Sf9 membrane polyspecificity reagent, FACS + sequencing; frameworks hold sequencing errors
In short: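 Galactose induction of a Saccharomyces cerevisiae BJ5465 synthetic nanobody display library ran 36–48 hours. The cells were then stained for 1 hour at 4 °C with 10% biotinylated, detergent-solubilized Sf9 membrane reagent, pulled down on streptavidin microbeads and FACS-sorted into low and high (top ~1%) gates on expression and reagent-binding fluorescence. Labels for polyreactivity follow the gate of origin.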

Sequence	polyreactivity (PSR sort gate)
QVQLVESGGGLVQAGGSLRLSCAASGSILYYNAMGWYRQAPGKERELVAAITSGGSTYADSVKGRFTISRDNAKNTVYLQMNSLKPEDTAVYYCAADLDWYLSDYGTSLEHDYWGQGTQVTVSS	low polyreactivity
QVQLVESGGGLVQAGGSLRLSCAASGSILYYYAMGWYRQAPGKERELVAAITRSGGSTYYADSVKGRITISRDNAKNTVYLQMNSLKPEDTAVYYCAKDAHAYRDLDYWGQGTQVTVSS	low polyreactivity
QVQLVESGGGLVQAGGSLRLSCAASGSIQYYAMGWYRHAPGKERELVAAIRFSGGRTYYADSVKGRFTISRDNAKITVYLQMHSLKPEHTAVYYCAAYRSPRRSGAPSQGKFDYCGQGTQVTVSS	low polyreactivity
QVQLVESGGGLVQAGGSLRLSCAASGSIRHNTIGWYRQAPGKESEFVASISKRGGSTYYADSVKGRFTISRDNAKNTVYLQMNSLKPEDTAVYYCNAGAVTFVGRDYWGQGTQVTVSS	high polyreactivity
QVQLVESGGGLVQAGGSLRLSCAASGSIRSYAMGWYRQAPGKERELVAAITRSGGSTYYADSVKGRFTISRDNAKNTVYLQMNSLKPEDTAVYYCAAEVRGKSRSTRVSYRYDYWGQGTQVTVSS	high polyreactivity
QVQLVESGGGLVQAGGSLRLSCAASGSIRVTNDMGWYRQATGKERELVAAITSIGGSTNYADSVKGRFTISRDNAKNPVYLQMNSLKPEDTAVYYCNVYLGILYKYDYWGQGTQVTVSS	low polyreactivity
QVQLVESGGGLVQAGGSLRLSCAASGSIRYYAMGWYIQAPGKERELVAAISSRGTNTYYADSVKGRFTISRDNAKNTVYLQMNSLKPEDTAVYYCNAVVGLGYNYWGQGTQVTVSS	high polyreactivity
QVQLVESGGGLVQAGGSLRLSCAASGSIRYYAMGWYRQAPGKEREFVAAISRRGSSTNYADSVKGRFTISRDNAKNTVYLQMNRLKPEDTAVYYCARGLDVISYGYDYWGQGTQVTVSS	high polyreactivity
QVQLVESGGGLVQAGGSLRLSCAASGSISAPNAMGWYRQAPGKERELVATINSGGRTNYADSVKGRFTISRDNSKNTVYLQMNSLKPEDTAVYYCNTVFRGAYTYGDVSKYDYWGQGTQVTVSS	low polyreactivity
QVQLVESGGGLVQAGGSLRLSCAASGSISDIYAMGWYRQAPGKERELVASISSGGITNYADSVKGRFTISRDNAKNTVYLQMNSLKPEDTAVYYCAKDRYPISFFYQMEYWGQGTQVTVSS	low polyreactivity
QVQLVESGGGLVQAGGSLRLSCAASGSISEIYAMGWYRQAPGKERELVAAISWSGGRTYYADSVKGRFTISRDNAKNTVYLQMNSLKPEDTAVYYCAARYRGGYYFGYEPYYYWGQGTQVTVSS	high polyreactivity
QVQLVESGGGLVQAGGSLRLSCAASGSISFLYTMGWYRQAPGKERELVAAITGSTASTYYADSVKGRFTISSDYAKNTVYLQMKSLKPEDTAVYYCAAYWYAVGYWVSRDYWGQGTQVTVSS	low polyreactivity
QVQLVESGGGLVQAGGSLRLSCAASGSISGWYAMGWYRQAPGKERELVADISSIAGSTYYADCVKGRFTISRDNAKNTDSLQKNSLKPEDTAVYYGAADRGVDYEYDYWGQGTQVTVSS	low polyreactivity
QVQLVESGGGLVQAGGSLRLSCAASGSISGYYVMGWYRQAPGKERELVAAITWRGGSTYYADSVKGSFTISRDNAKNTVYLQMNSLKPEDTAVYYCNKVPGRRSTFEYWGQGTQVTVSS	high polyreactivity
QVQLVESGGGLVQAGGSLRLSCAASGSISHYAMGWYTQAPGTESELVAAISRRGGSTYYADSVKGRFTISRDNAKNTVYLQLNSLKPEDTAVYYCNAVRAGGYTEFNYWGQGTQVTVSS	high polyreactivity
QVQLVESGGGLVQAGGSLRLSCAASGSISKINAMGWYRQAPGKERELVAAINTGDSTYYADSVKGRFTISRDNAKNTVYLQMNSLKPEDTAVYYCAAEGSPTGYDYWGQGTQVTVSS	low polyreactivity
QVQLVESGGGLVQAGGSLRLSCAASGSISPQNVMGWYRQAPGKERELVAAITWTGTSTYADSVKGSFTISRDNAKNTVYLQMNSLKPEDTAVYYCAARYYAPRWFRYDYWGQGTQVTVSS	low polyreactivity
QVQLVESGGGLVQAGGSLRLSCAASGSISQKYVMGWYRKAPGKERELVAAIRSTGNTYYADSVKGRFTISRDNAKNTVYLQMNSLKPEDTAVYYCAARLYVLRWYPYDYWGQGTQVTVSS	low polyreactivity
QVQLVESGGGLVQAGGSLRLSCAASGSISQPYAMGGYRQAPGKERELVAAIRWSGGSTYYADSVKGRFTISRDNAKNTVYLEMNCLNPEDTAVYYCNKTTYYPSDYVYWGQGTQVTVSS	low polyreactivity
QVQLVESGGGLVQAGGSLRLSCAASGSISSFYAMGWYRQAPGKERELVAGITSGGSTNYADSVKGRFTISRDNAKNTVYLQKNSLKPEDTAVYYCAAVYQGAGTHFDVFVKEFDYWGQGTQVTVSS	low polyreactivity
QVQLVESGGGLVQAGGSLRLSCAASGSISTVYAMGWSRQAPGKERELVAAISWSGGSTYYADSVKGRFTISRDNAKNTDYLQMNSLKPEDTAFYYCAVRGLLYHSYYSVRYDYWGQGTQVTVSS	high polyreactivity
QVQLVESGGGLVQAGGSLRLSCAASGSISTYNDSGWYRQAPGKEREFVASITLSTGRTDYADSVKGRFTISRDNAKNTVYLQMNSLKPEETAVYVCSVRDYARKYLTSFDYWGQGTQVTVSS	high polyreactivity

Sequence	polyreactivity (PSR sort gate)
QVQLVESGGGLVQAGGSLRLSCAASGSISVGYTMGWYRQAPGKEREFVAVITGTGGRTRYSDSVKGRFTISRDNAKNTVYLQMNSLKPEDTAGYYCAAKIRWRGALYDYWGQGTQVTVSS	high polyreactivity
QVQLVESGGGLVQAGGSLRLSCAASGSISVRNVMGWYRQAPGKERELVATIRRTGGSTSYADSVKGRFTISRDNAKNTVYVQMNSLKPEDTAVYYCAAVGYTTYRRYDYWGQGTQVTVSS	low polyreactivity
QVQLVESGGGLVQAGGSLRLSCAASGSISVRNVMGWYRQAPRKERELVATIRRTGGSTSYADSVKGRFTISRDNAKNTVYLQMNSLKPEDTAVYYCAAVGYTTYRRYDYWGQGTQVTVSS	low polyreactivity
QVQLVESGGGLVQAGGSLRLSCAASGSISVSYMGWYRQAPGKERELVAAINWRGGSTYYADSVKGRFTISRDNAKNTVYLQMNSLKPEDTAVYYCAADYTVSYPYYEYYYWGQGTQVNVSS	high polyreactivity
QVQLVESGGGLVQAGGSLRLSCAASGSISWKYAMGWSRQAPGKERELVAAISWSGSSTYYADSVKGRFTISRDNAKNTVYLQMNSLKPEDTAVYYCAADRVSRLTNRREYWGQGTQVTVSS	high polyreactivity
QVQLVESGGGLVQAGGSLRLSCAASGSISYDYAMGWYRQAPGKERELVASITSRGGSTYADSVKGRFTISRDNAKNTVYLQMNSLKPEDTAVYYCAADAIPNLIFISLPFGLDYWGQGTQVTVSS	low polyreactivity
QVQLVESGGGLVQAGGSLRLSCAASGSISYFNDMGWYRQAPGKERELVAAIRDSGGITYADSVKGRFTISRDNAKNTVYLQMNSLKPEDTAVYYCDKDAGLQKYHHDYWGQGTQVTVSS	low polyreactivity
QVQLVESGGGLVQAGGSLRLSCAASGSISYQNAMGWYRQAPGKERELVAAISGDGDSTYYADSVKGRFTISRDNAKNTVYLQMNSLKPEDTAVYYCAAEPNVYFSVFVLFPSDYWGQGTQVTVSS	low polyreactivity
QVQLVESGGGLVQAGGSLRLSCAASGSISYRYVMGWYRQAPGKERELVAAITTSGGSTYYADSVKGRFTISRDNAKNTVYLQKNSLKPEDTAVYYCAKVYQADQLRSHYDYWGQGTQVTVSS	high polyreactivity
QVQLVESGGGLVQAGGSLRLSCAASGSISYYNAMGWYRQAPGKERELVATITDSGGSTYYADSVKGRFTISRDNAKNTVYLQMNSLKPEDTAVYYCAVDYTEWYSIYDYWGQGTEVTVSS	low polyreactivity
QVQLVESGGGLVQAGGSLRLSCAASGSISYYYGMGWYRQAPGKERELVAAISTRGGSTYYADSVKGRFTISRDNAKNTVYLQMNSLKPEDTAVYYCAVRYYRPYSRFDYWGQGTQVTVSS	high polyreactivity
QVQLVESGGGLVQAGGSLRLSCAASGSITVPYGMGWYRQAPGKERELVAAITGGSTNYADSVKGRFTISRDNAKNTVYLQMNSLKPEDTAVYYCAADWWALYTRYDYWGQGSQVTVSS	low polyreactivity
QVQLVESGGGLVQAGGSLRLSCAASGSIVDFYAMGWYRQSPGTERELVAAIDDIDDSTYYADSVKGRFTISRDNAKNTVYLQMNSLKPEDTAVYYCAAELRPGYRSSYGLIYDYWGQGTQVTVSS	low polyreactivity
QVQLVESGGGLVQAGGSLRLSCAASGSIVDTNAMGWYRQAPGKERELVAAITSTDSTNYADSVKGRFTISRDNAKNTVYLQMNSLKPEDTAVYYCNAALSQLRRGGLAMDYWGQGTQVTVSS	low polyreactivity
QVQLVESGGGLVQAGGSLRLSCAASGSIVDWYVMGWYRQAPGKERELVAAITSTGSTYYADSVKGRFTISRDNAKNTVYLQMNSLKPEDTAVYYCATSFYVYPTYYIMDYWGQGTQVTVSS	low polyreactivity
QVQLVESGGGLVQAGGSLRLSCAASGSIVGTYAMGWYRQAPGKERELVAAITWRGGNTYYADSVKGRFTISRDNAKNTVYLQMNSLKPEDTAVYYCAARGYKSSRRYYYWGQGTQVTVSS	high polyreactivity
QVQLVESGGGLVQAGGSLRLSCAASGSIVGYNAMGWYRQAPGKEWEFVAAISWSGGRTYYADSVKGRFTISRDNAKNTVYLQMNILKPEDTAVYYSAADVFFYVYEAYLLYYWGQRTQVTVSS	low polyreactivity
QVQLVESGGGLVQAGGSLRLSCAASGSIVLIYAMGWYRQAPGKERELVAAITGRGGRTYYADSVKGRFTISRDNAKNTVYLQLNSLKPEDTAVYYCAADSVYTLGLKYDYWGQGTQVTVSS	high polyreactivity
QVQLVESGGGLVQAGGSLRLSCAASGSIVYRYAMGWYRPAPGKERELVAAISYSGGSTYYADSVKGRFTISRDNAKNTVYLQMNSLKPEDTAVYYCAKDYPPPISDYSRYYGYGYWGQGTQVTVSS	low polyreactivity
QVQLVESGGGLVQAGGSLRLSCAASGSIVYYYAMGWYRQAPGKERELVAAITRSGGSTYYADSVKGRFTISRDNAKNTVYLQMNSLKPEDTSVYYCAKDAHAYRDLDYWGQGTQVTVSS	low polyreactivity
QVQLVESGGGLVQAGGSLRLSCAASGSIYAVYAMGWYRPAPGKERELVATISGRGGSTYYADSVKGRFTISRDNAKNTVYLQMNSLKPEDTAVYYCNARVLFRRERMDSWGQGTQVTVSS	high polyreactivity

— the nanobody polyreactivity screen of Harvey et al. (2022)
